The values below come from doi:10.1101/2022.06.02.494578.

What is called pKd is the negative decadic logarithm of the Kd, by convention in mol/L. A higher pKd goes with a small Kd.

pKd: −log10 of the molar value.

For assay [1], the target named is taxol-stabilised microtubules polymerised from pig brain tubulin (pig) (UniProt P02550). The assay is described as follows: TIRF imaging of labeled Lis1 on microtubules.
Assay [2] has the same target. The assay is described as follows: co-sedimentation.

Sequence of Lis1 (Pac1, the Lis1 homolog in S. cerevisiae), wild-type dimer (P39946 whole entry): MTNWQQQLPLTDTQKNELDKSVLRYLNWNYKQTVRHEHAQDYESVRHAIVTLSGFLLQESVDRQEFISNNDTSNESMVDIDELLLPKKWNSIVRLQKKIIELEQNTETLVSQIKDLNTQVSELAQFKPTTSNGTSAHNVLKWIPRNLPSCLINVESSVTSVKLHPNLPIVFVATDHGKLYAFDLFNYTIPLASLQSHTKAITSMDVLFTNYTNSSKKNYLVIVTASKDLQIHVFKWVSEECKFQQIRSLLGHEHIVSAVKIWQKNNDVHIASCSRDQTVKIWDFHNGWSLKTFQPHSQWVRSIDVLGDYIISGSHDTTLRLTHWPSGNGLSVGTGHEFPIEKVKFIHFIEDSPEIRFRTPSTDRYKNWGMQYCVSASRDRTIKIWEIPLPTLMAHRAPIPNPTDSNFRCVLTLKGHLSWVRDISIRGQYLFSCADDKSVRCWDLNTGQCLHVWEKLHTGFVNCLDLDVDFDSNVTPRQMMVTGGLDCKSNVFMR
Sequence of taxol-stabilised microtubules polymerised from pig brain tubulin (pig) (P02550 whole entry): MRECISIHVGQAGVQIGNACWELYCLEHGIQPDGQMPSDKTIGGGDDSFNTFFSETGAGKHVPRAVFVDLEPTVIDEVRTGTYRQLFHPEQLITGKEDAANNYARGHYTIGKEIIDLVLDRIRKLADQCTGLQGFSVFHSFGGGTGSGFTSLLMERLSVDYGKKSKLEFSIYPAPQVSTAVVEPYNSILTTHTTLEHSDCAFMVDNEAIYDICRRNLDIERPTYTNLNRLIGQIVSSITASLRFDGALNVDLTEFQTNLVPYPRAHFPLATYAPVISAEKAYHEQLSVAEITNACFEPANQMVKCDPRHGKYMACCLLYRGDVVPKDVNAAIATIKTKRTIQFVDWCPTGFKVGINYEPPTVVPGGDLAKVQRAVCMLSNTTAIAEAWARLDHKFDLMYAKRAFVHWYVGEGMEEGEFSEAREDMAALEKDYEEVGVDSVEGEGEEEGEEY
Sequence of monomeric Lis1 lacking its amino-terminal dimerization domain (domain or fragment) (A6ZPA6 whole entry, the tested form may be a part): as the sequence (P39946 whole entry) above

In assay [1], “Lis1 (Pac1, the Lis1 homolog in S. cerevisiae), wild-type dimer (from UniProt P39946 1-494) (natural protein)” yielded a percent of Lis1 intensity on microtubules lost after washing of 92% and a residence time on the microtubule of 19.3 s. Further, the pKd in assay [2] was 7.06.
“monomeric Lis1 lacking its amino-terminal dimerization domain (domain or fragment)” displayed a time to dissociation from the microtubule in assay [1] of 1 to 2 s.
